Key:
cyno CD3 = target: T1, cyno CD3 (cyno, UniProt Q95LI5 22-117); assay: method not stated in the legend (Figure 143)
T1 construct: also called cynomolgus monkey CD3
T1 sequence (looked up): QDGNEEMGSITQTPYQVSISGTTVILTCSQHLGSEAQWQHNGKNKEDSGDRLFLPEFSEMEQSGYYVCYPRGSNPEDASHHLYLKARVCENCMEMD

human CD3 = human CD3 (human, UniProt P07766 23-126); assay: method not stated in the legend (Figure 142)
Chain of human CD3 (P07766 23-126): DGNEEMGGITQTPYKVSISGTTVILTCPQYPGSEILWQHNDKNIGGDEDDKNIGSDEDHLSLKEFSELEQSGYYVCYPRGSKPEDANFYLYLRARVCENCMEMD

Kd (cyno CD3): 5.7 nM | Kd (human CD3): 8.1 nM
B1: XENP14045 (anti-CD123 x anti-CD3) bispecific (bispecific antibody)
chain 1: QVQLQQSGAEVKKPGASVKVSCKASGYTFTDYYMKWVKQSHGKSLEWMGDIIPSNGATFYNQKFKGKATLTVDRSTSTAYMELSSLRSEDTAVYYCARSHLLRASWFAYWGQGTLVTVSSASTKGPSVFPLAPSSKSTSGGTAALGCLVKDYFPEPVTVSWNSGALTSGVHTFPAVLQSSGLYSLSSVVTVPSSSLGTQTYICNVNHKPSDTKVDKKVEPKSCDKTHTCPPCPAPPVAGPSVFLFPPKPKDTLMISRTPEVTCVVVDVKHEDPEVKFNWYVDGVEVHNAKTKPREEEYNSTYRVVSVLTVLHQDWLNGKEYKCKVSNKALPAPIEKTISKAKGQPREPQVYTLPPSREEMTKNQVSLTCDVSGFYPSDIAVEWESDGQPENNYKTTPPVLDSDGSFFLYSKLTVDKSRWEQGDVFSCSVMHEALHNHYTQKSLSLSPGK
chain 2: not shown
chain 3: not shown

Reference: patent EP4059514A1 (Xencor, Inc., dated 2022)
